Assay results from PMC7367873, “Dissecting the sequence determinants for dephosphorylation by the catalytic subunits of phosphatases PP1 and PP2A” (Nature Communications, 2020).

How the values were obtained:
GFP-14-3-3β = GFP-14-3-3β co-IP with LC-MS/MS, untreated GFP-14-3-3β versus GFP control (14-3-3 interactome); assay type: binding, human; settings: untreated vs GFP; LFQ intensities; 3 replicates each
[1] = system: GFP-14-3-3β and its binding proteins; assay: GFP-14-3-3β co-IP with LC-MS/MS label-free quantification, untreated versus PP1c-treated; parameters: species or system human; settings: PP1 vs untreated; LFQ intensities; 3 replicates each

Molecule | Difference (log2), untreated vs GFP (GFP-14-3-3β) [log2] | Difference (log2), PP1 vs untreated [1] [log2]
ATP5J2 (protein, UniProt P56134 2-94, looked up) ATP synthase F(0) complex …: ASVGECPAPVPVKDKKLLEVKLGELPSWILMRDFSPSGIFGAFQRGYYRYYNKYINVKKGSISGITMVLACYVLFSYSFSYKHLKHERLRKYH | -0.05352 | 0.4378
MAP4K4 (protein, UniProt O95819 2-1239, looked up) Mitogen-activated protein …: ANDSPAKSLVDIDLSSLRDPAGIFELVEVVGNGTYGQVYKGRHVKTGQLAAIKVMDVTEDEEEEIKLEINMLKKYSHHRNIATYYGAFIKKSPPGHDDQLWLVMEFCGAGSITDLVKNTKGNTLKEDWIAYISREILRGLAHLHIHHVIHRDIKGQNVLLTENAEVKLVDFGVSAQLDRTVGRRNTFIGTPYWMAPEVIACDENPDATYDYRSDLWSCGITAIEMAEGAPPLCDMHPMRALFLIPRNPPPRLKSKKWSKKFFSFIEGCLVKNYMQRPSTEQLLKHPFIRDQPNERQVRIQLKDHIDRTRKKRGEKDETEYEYSGSEEEEEEVPEQEGEPSSIVNVPGESTLRRDFLRLQQENKERSEALRRQQLLQEQQLREQEEYKRQLLAERQKRIEQQKEQRRRLEEQQRREREARRQQEREQRRREQEEKRRLEELERRRKEEEERRRAEEEKRRVEREQEYIRRQLEEEQRHLEVLQQQLLQEQAMLLECRWREMEEHRQAERLQRQLQQEQAYLLSLQHDHRRPHPQHSQQPPPPQQERSKPSFHAPEPKAHYEPADRAREVEDRFRKTNHSSPEAQSKQTGRVLEPPVPSRSESFSNGNSESVHPALQRPAEPQVPVRTTSRSPVLSRRDSPLQGSGQQNSQAGQRNSTSIEPRLLWERVEKLVPRPGSGSSSGSSNSGSQPGSHPGSQSGSGERFRVRSSSKSEGSPSQRLENAVKKPEDKKEVFRPLKPADLTALAKELRAVEDVRPPHKVTDYSSSSEESGTTDEEDDDVEQEGADESTSGPEDTRAASSLNLSNGETESVKTMIVHDDVESEPAMTPSKEGTLIVRQTQSASSTLQKHKSSSSFTPFIDPRLLQISPSSGTTVTSVVGFSCDGMRPEAIRQDPTRKGSVVNVNPTNTRPQSDTPEIRKYKKRFNSEILCAALWGVNLLVGTESGLMLLDRSGQGKVYPLINRRRFQQMDVLEGLNVLVTISGKKDKLRVYYLSWLRNKILHNDPEVEKKQGWTTVGDLEGCVHYKVVKYERIKFLVIALKSSVEVYAWAPKPYHKFMAFKSFGELVHKPLLVDLTVEEGQRLKVIYGSCAGFHAVDVDSGSVYDIYLPTHIQCSIKPHAIIILPNTDGMELLVCYEDEGVYVNTYGRITKDVVLQWGEMPTSVAYIRSNQTMGWGEKAIEIRSVETGHLDGVFMHKRAQRLKFLCERNDKVFFASVRSGGSSQVYFMTLGRTSLLSW | 0.6698 | 0.4439
TUBB4A (protein, UniProt P04350 1-444, looked up) Tubulin beta-4A chain: MREIVHLQAGQCGNQIGAKFWEVISDEHGIDPTGTYHGDSDLQLERINVYYNEATGGNYVPRAVLVDLEPGTMDSVRSGPFGQIFRPDNFVFGQSGAGNNWAKGHYTEGAELVDAVLDVVRKEAESCDCLQGFQLTHSLGGGTGSGMGTLLISKIREEFPDRIMNTFSVVPSPKVSDTVVEPYNATLSVHQLVENTDETYCIDNEALYDICFRTLKLTTPTYGDLNHLVSATMSGVTTCLRFPGQLNADLRKLAVNMVPFPRLHFFMPGFAPLTSRGSQQYRALTVPELTQQMFDAKNMMAACDPRHGRYLTVAAVFRGRMSMKEVDEQMLSVQSKNSSYFVEWIPNNVKTAVCDIPPRGLKMAATFIGNSTAIQELFKRISEQFTAMFRRKAFLHWYTGEGMDEMEFTEAESNMNDLVSEYQQYQDATAEEGEFEEEAEEEVA | -1.261 | 0.4246
IMMT (protein, UniProt Q16891 34-758, looked up) MICOS complex subunit MIC60: STSGSSGLTTGKIAGAGLLFVGGGIGGTILYAKWDSHFRESVEKTIPYSDKLFEMVLGPAAYNVPLPKKSIQSGPLKISSVSEVMKESKQPASQLQKQKGDTPASATAPTEAAQIISAAGDTLSVPAPAVQPEESLKTDHPEIGEGKPTPALSEEASSSSIRERPPEEVAARLAQQEKQEQVKIESLAKSLEDALRQTASVTLQAIAAQNAAVQAVNAHSNILKAAMDNSEIAGEKKSAQWRTVEGALKERRKAVDEAADALLKAKEELEKMKSVIENAKKKEVAGAKPHITAAEGKLHNMIVDLDNVVKKVQAAQSEAKVVSQYHELVVQARDDFKRELDSITPEVLPGWKGMSVSDLADKLSTDDLNSLIAHAHRRIDQLNRELAEQKATEKQHITLALEKQKLEEKRAFDSAVAKALEHHRSEIQAEQDRKIEEVRDAMENEMRTQLRRQAAAHTDHLRDVLRVQEQELKSEFEQNLSEKLSEQELQFRRLSQEQVDNFTLDINTAYARLRGIEQAVQSHAVAEEEARKAHQLWLSVEALKYSMKTSSAETPTIPLGSAVEAIKANCSDNEFTQALTAAIPPESLTRGVYSEETLRARFYAVQKLARRVAMIDETRNSLYQYFLSYLQSLLLFPPQQLKPPPELCPEDINTFKLLSYASYCIEHGDLELAAKFVNQLKGESRRVAQDWLKEARMTLETKQIVEILTAYASAVGIGTTQVQPE | 0.387 | 0.4434
CPS1 (protein, UniProt P31327 39-1500, looked up) Carbamoyl-phosphate synthase …: LSVKAQTAHIVLEDGTKMKGYSFGHPSSVAGEVVFNTGLGGYPEAITDPAYKGQILTMANPIIGNGGAPDTTALDELGLSKYLESNGIKVSGLLVLDYSKDYNHWLATKSLGQWLQEEKVPAIYGVDTRMLTKIIRDKGTMLGKIEFEGQPVDFVDPNKQNLIAEVSTKDVKVYGKGNPTKVVAVDCGIKNNVIRLLVKRGAEVHLVPWNHDFTKMEYDGILIAGGPGNPALAEPLIQNVRKILESDRKEPLFGISTGNLITGLAAGAKTYKMSMANRGQNQPVLNITNKQAFITAQNHGYALDNTLPAGWKPLFVNVNDQTNEGIMHESKPFFAVQFHPEVTPGPIDTEYLFDSFFSLIKKGKATTITSVLPKPALVASRVEVSKVLILGSGGLSIGQAGEFDYSGSQAVKAMKEENVKTVLMNPNIASVQTNEVGLKQADTVYFLPITPQFVTEVIKAEQPDGLILGMGGQTALNCGVELFKRGVLKEYGVKVLGTSVESIMATEDRQLFSDKLNEINEKIAPSFAVESIEDALKAADTIGYPVMIRSAYALGGLGSGICPNRETLMDLSTKAFAMTNQILVEKSVTGWKEIEYEVVRDADDNCVTVCNMENVDAMGVHTGDSVVVAPAQTLSNAEFQMLRRTSINVVRHLGIVGECNIQFALHPTSMEYCIIEVNARLSRSSALASKATGYPLAFIAAKIALGIPLPEIKNVVSGKTSACFEPSLDYMVTKIPRWDLDRFHGTSSRIGSSMKSVGEVMAIGRTFEESFQKALRMCHPSIEGFTPRLPMNKEWPSNLDLRKELSEPSSTRIYAIAKAIDDNMSLDEIEKLTYIDKWFLYKMRDILNMEKTLKGLNSESMTEETLKRAKEIGFSDKQISKCLGLTEAQTRELRLKKNIHPWVKQIDTLAAEYPSVTNYLYVTYNGQEHDVNFDDHGMMVLGCGPYHIGSSVEFDWCAVSSIRTLRQLGKKTVVVNCNPETVSTDFDECDKLYFEELSLERILDIYHQEACGGCIISVGGQIPNNLAVPLYKNGVKIMGTSPLQIDRAEDRSIFSAVLDELKVAQAPWKAVNTLNEALEFAKSVDYPCLLRPSYVLSGSAMNVVFSEDEMKKFLEEATRVSQEHPVVLTKFVEGAREVEMDAVGKDGRVISHAISEHVEDAGVHSGDATLMLPTQTISQGAIEKVKDATRKIAKAFAISGPFNVQFLVKGNDVLVIECNLRASRSFPFVSKTLGVDFIDVATKVMIGENVDEKHLPTLDHPIIPADYVAIKAPMFSWPRLRDADPILRCEMASTGEVACFGEGIHTAFLKAMLSTGFKIPQKGILIGIQQSFRPRFLGVAEQLHNEGFKLFATEATSDWLNANNVPATPVAWPSQEGQNPSLSSIRKLIRDGSIDLVINLPNNNTKFVHDNYVIRRTAVDSGIPLLTNFQVTKLFAEAVQKSRKVDSKSLFHYRQYSAGKAA | 0.419 | 0.4276
